Experimental findings from publication PMC7540478 are described below.

In general, Km refers to the concentration of substrate that gives half-maximal velocity. As usually defined, the kcat is the maximal rate divided by the concentration of active sites.

Substrate in series [1]: O=P(O)(O)O[C@H]1O[C@H](CO)[C@@H](O)[C@H](O)[C@H]1O
Briefly: purified protein. As to conditions: 2 M glycerol as acceptor, 50 mM MES pH 7.0, 30 °C.

Substrate in series [2]: OC[C@H]1O[C@@](CO)(O[C@H]2O[C@H](CO)[C@@H](O)[C@H](O)[C@H]2O)[C@@H](O)[C@@H]1O
Briefly: purified protein. As to conditions: 2 M glycerol as acceptor, 50 mM MES pH 7.0, 30 °C.

B1: LmSucP (Leuconostoc mesenteroides) (protein)
chain: MEIQNKAMLITYADSLGKNLKDVHQVLKEDIGDAIGGVHLLPFFPSTGDRGFAPADYTRVDAAFGDWADVEALGEEYYLMFDFMINHISRESVMYQDFKKNHDDSKYKDFFIRWEKFWAKAGENRPTQADVDLIYKRKDKAPTQEITFDDGTTENLWNTFGEEQIDIDVNSAIAKEFIKTTLEDMVKHGANLIRLDAFAYAVKKVDTNDFFVEPEIWDTLNEVREILTPLKAEILPEIHEHYSIPKKINDHGYFTYDFALPMTTLYTLYSGKTNQLAKWLKMSPMKQFTTLDTHDGIGVVDARDILTDDEIDYASEQLYKVGANVKKTYSSASYNNLDIYQINSTYYSALGNDDAAYLLSRVFQVFAPGIPQIYYVGLLAGENDIALLESTKEGRNINRHYYTREEVKSEVKRPVVANLLKLLSWRNESPAFDLAGSITVDTPTDTTIVVTRQDENGQNKAVLTADAANKTFEIVENGQTVMSSDNLTQN
Regarding B1, in the series “purified protein [1]”, the Km is listed as 12.5 ± 1.7 mM and the kcat was found to be 36 ± 3 s⁻¹. In addition, the Km in the series “purified protein [2]” is on record as 1.4 ± 0.1 mM.
